Source: patent US12702694B2, “Methods for identification, assessment, prevention, and treatment of metabolic disorders using SLIT2” (Dana-Farber Cancer Institute, Inc., priority 2015, dated 2026)

How the values were obtained:
[1] = system: diet-induced obese (DIO) mice; test: Adipose gene and UCP1 protein expression after adenovirus injection in diet-induced obese (DIO) mice; format: in vivo, Mus musculus
Description: All animal experiments were approved by the Institutional Animal Care and Use Committee of the Beth Israel Deaconess Medical Center. Mice (Mus musculus) were obtained from Jackson Laboratories, maintained in 12 hour light-lark cycles (6 a.m.-6 p.m.) at 22° C., and fed a standard irradiated rodent chow diet or a high-fat diet (60% fat) for 12-20 weeks. AAV-8 viruses (Penn Vector Core) and adenoviruses (Vector Biolabs or constructed in-house) were injected at a titer of 10^11 or 10^10 per mouse, respectively. All experiments were done with male mice. The aP2-PRDM16 transgenic mice have been previously described in Seale et al. (2011) J. Clin. Invest. 121:96-105. PRDM16-floxed mice were crossed with adiponectin-Cre and were maintained on a pure C57BL/6 background (Cohen et al. (2014) Cell 156:304-316). The Slit2-floxed mice have been described previously in Rama et al. (2015) Nat. Med. 21:483-491. Lean C57BL/6 mice were obtained from Jackson Laboratories and were […].
RNA was extracted from cultured cells or frozen tissue samples using TRIzol®, purified with QIAGEN RNeasy® minicolumns. Normalized RNA was reversed transcribed using a high-capacity cDNA reverse transcription lot (Applied Biosystems) and cDNA was analyzed by qRT-CPR. Relative mRNA levels were calculated using the comparative CT method and normalized to cyclophilin […]. All primers used are listed with their sequences in Table 3 as follows: […]
For Western blotting, homogenized tissues, whole cell lysates, or concentrated serum free conditioned medium were lysed in RIPA buffer containing protease inhibitor cocktail (Thermo Scientific) and phosphatase inhibitor cocktail (Thermo Scientific), separated by SDS-PAGE and transferred to Immobilon-P® membranes (Millipore). For Western blotting of plasma samples, 1 μl of plasma was prepared containing 2× sample buffer (Invitrogen) with reducing agent, boiled and analyzed using Western blot against V5, FLAG, or the indicated antibody. V5-antibody was from Life Technologies and anti-Flag M2-HRP (A8592) from Sigma Aldrich. Anti-Slit2 antibody used was from Abcam (Abcam ab134166). Phospho-PKA Substrate, phospho-PKC Substrate, phospho-ERK1/2, total ERK, phospho-AKT, total AKT, phospho-AMPK, total AMPK, phospho-ATGL, ATGL, phospho-EGFR and EGFR were from Cell Signaling. Protein array was from R&D Systems (Proteome Profiler Mouse Phospho-RTK Array Kit, ARY014). Silverstain (SilverQuest™ Silver Staining Kit, LC6070) was purchased from Thermo Fisher.

[2] = Plasma cholesterol, triglycerides and insulin; format: in vivo, Mus musculus; settings: 7 days post-injection
Description: Glucose tolerance tests were performed on mice 7 days post-injection with adenovirus. […] Animals were fasted overnight and then received intraperitoneal glucose at […]. Energy expenditure was analyzed using a Comprehensive Lab Animal Monitoring System (Columbus Instruments). Cold exposure and thermoneutrality experiments were performed in Balb/c mice at 4° C. or 30° C., respectively. Total levels of cholesterol, free fatty acids, triglycerides and insulin were measured at the Core Facility at Joslin Diabetes Center.

B1: Slit2-C: ~50 kDa C-terminal cleavage fragment of Slit2 beginning at TSP (SEQ ID NO: 22); adenovirally expressed or purified FLAG-tagged protein (protein, listed as Homo sapiens)
chain: TSPCDNFDCQNGAQCIIRINEPICQCLPGYLGEKCEKLVSVNFVNKESYLQIPSAKVRPQTNITLQIATDEDSGILLYKGDKDHIAVELYRGRVRASYDTGSHPASAIYSVETINDGNFHIVELLTLDSSLSLSVDGGSPKVITNLSKQSTLNFDSPLYVGGMPGKNNVASLRQAPGQNGTSFHGCIRNLYINSELQDFRKMPMQTGILPGCEPCHKKVCAHGMCQPSSQSGFTCECEEGWMGPLCDQRTNDPCLGNKCVHGTCLPINAFSYSCKCLEGHGGVLCDEEEDLFNPCQMIKCKHGKCRLSGVGQPYCECNSGFTGDSCDREISCRGERIRDYYQKQQGYAACQTTKKVSRLECRGGCAGGQCCGPLRSKRRKYSFECTDGSSFVDEVEKVVKCGCARCAS
modifications: FLAG tag
notes: adenovirally expressed or purified FLAG-tagged protein
- Fas in inguinal and brown fat ([1]; 16-week DIO mice, 7 days post-injection, FIGS. 7A-7B): reduction
- Hsl and Atgl expression ([1]; 16-week DIO mice, FIGS. 7A-7B): unchanged
- Resistin in brown fat ([1]; FIG. 7C): unchanged
- brown fat levels of Leptin ([1]; FIG. 7C): marked reduction
- induction of Ucp1 protein expression in BAT ([1]; Western blot quantification relative tubulin, DIO mice 7 days post-injection, FIG. 7D): 1.3 fold
- total plasma cholesterol ([2]; FIG. 9G): not affected
- plasma triglycerides ([2]; FIG. 9H): not affected
- non-fasting insulin levels ([2]; FIG. 9I): not affected
